Laboratory results taken from US20140377284A1 (BIOCEROX PRODUCTS B V, published 2014).

Key:
[1] = molecular target: T1, human fibronectin-derived control peptide (extra type III structural domain) (human); experiment: peptide ELISA
T1 construct: Synthesized by Pepscan Presto; coated on ELISA plates
T1 peptide: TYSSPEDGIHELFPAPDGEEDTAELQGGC
Experimental: (§1) After adding 1 M […], optical densities was measured at a wavelength of 450 nm (reference wavelength of 655 nm) using a microplate reader (BioRad).
(§2) Ninety six-wells flat-bottom ELISA plates (Corning) were coated with 10 ng/well human CD134-derived peptide (synthesized by Pepscan Presto, Lelystad, The Netherlands), which corresponded to amino acid sequence of truncated CRD3 A1-module-CRD4 subdomain A1 module (see SEQ ID NO. 38) or with 10 ng/well human fibronectin-derived control peptide (synthesized by Pepscan Presto, Lelystad, The Netherlands), which corresponded to amino acid sequence of extra type III structural domain (see SEQ ID NO. 37) in PBS o/n at 4° C. After extensive washing in PBS/0.05% Tween 20, plates were blocked in PBS/0.05% Tween 20/1% BSA fraction V (Roche) for 1 hour at RT. […] After extensive washing in PBS/0.05% Tween 20, binding of antibodies was determined with 1:5000 diluted horseradish peroxidase-conjugated goat anti-human IgG Fcγ-specific antibodies (Jackson ImmunoResearch) for 1 hour at RT, followed by a ready-to-use solution of TMB substrate (Invitrogen) for colorimetric detection. After adding 1 M H₂SO₄, optical densities was measured at a wavelength of 450 nm (reference wavelength of 655 nm) using a microplate reader (BioRad).

[2] = molecular target: T2, human CD134-derived peptide (truncated CRD3 A1-module-CRD4 subdomain A1-module) (human); experiment: peptide ELISA, 10 ng/well peptide coated
T2 construct: Synthesized by Pepscan Presto; coated on ELISA plates
T2 peptide: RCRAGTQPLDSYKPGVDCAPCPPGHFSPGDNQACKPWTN
Experimental: as §1, §2

[3] = molecular target: T3, human CD134 (full-length, on cells) (human, UniProt P43489 29-277); experiment: flow cytometry, stable CD134 293-F clone no. 23
T3 construct: also called OX40; TNFRSF4
T3 sequence: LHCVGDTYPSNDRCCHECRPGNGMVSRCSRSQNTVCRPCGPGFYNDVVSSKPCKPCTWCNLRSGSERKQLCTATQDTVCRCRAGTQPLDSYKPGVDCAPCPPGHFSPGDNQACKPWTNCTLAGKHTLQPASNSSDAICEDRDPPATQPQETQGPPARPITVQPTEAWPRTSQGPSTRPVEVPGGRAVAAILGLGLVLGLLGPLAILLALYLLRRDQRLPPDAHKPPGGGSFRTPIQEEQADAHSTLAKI
Experimental: Full-length human CD134 (SEQ ID NO. 1) was re-cloned in a pcDNA3.1-derived expression plasmid (see Example 11 (d) below). […] After extensive washing in PBS/BSA/NaN₃, cells were subsequently incubated with 1:200 diluted PE-conjugated goat anti-mouse IgG (Fcγ specific) antibodies (Jackson ImmunoResearch) or with 1:200 diluted PE-conjugated goat anti-human IgG (Fcγ specific) antibodies (Jackson ImmunoResearch) for 30 minutes at 4° C. After extensive washing in PBS/BSA/NaN₃, cells were fixed in 2% formaldehyde in PBS/BSA/NaN₃ for 30 minutes at 4° C. Binding of antibodies was measured using flow cytometry (FACSCalibur; BD Biosciences).

[4] = molecular target: T4, truncated human CD134 'truncated (tc) CRD4' construct (human, UniProt P43489 147-277); experiment: flow cytometry, transiently transfected 293-F cells
T4 construct: also called truncated CRD4
T4 sequence: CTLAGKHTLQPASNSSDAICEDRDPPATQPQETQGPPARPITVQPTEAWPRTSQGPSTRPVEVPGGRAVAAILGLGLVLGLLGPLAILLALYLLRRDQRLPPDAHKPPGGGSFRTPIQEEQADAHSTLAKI
Experimental: After 48 h, surface human CD134 expression on transfected cells was analyzed by FACS analysis. To this end, transfected cells were harvested and put at 1-2×10⁶ cells/mL in ice-chilled PBS/BSA/NaN₃ supplemented with 50 μg/mL purified human IgG (Sigma; blocking Fey receptors). […] After extensive washing in PBS/BSA/NaN₃, cells were subsequently incubated with 1:200 diluted PE-conjugated goat anti-mouse IgG (Fcγ specific) antibodies (Jackson ImmunoResearch) or with 1:200 diluted PE-conjugated goat anti-human IgG (Fcγ specific) antibodies (Jackson ImmunoResearch) for 30 minutes at 4° C. […] After extensive washing in PBS/BSA/NaN₃, cells were subsequently incubated with 1:200 diluted PE-conjugated goat anti-mouse IgG (Fcγ specific) antibodies (Jackson ImmunoResearch) for 30 minutes at 4° C. After extensive washing in PBS/BSA/NaN₃, cells were fixed in 2% formaldehyde in PBS/BSA/NaN₃ for 30 minutes at 4° C. Binding of antibodies was measured using flow cytometry (FACSCalibur; BD Biosciences).

[5] = molecular target: T3, human CD134 (full-length, on cells); experiment: flow cytometry, PHA-stimulated human CD3+ T lymphocytes
[6] = molecular target: T5, recombinant human CD134:human Fcγ (IgG1) fusion protein (human, UniProt P01857-1 100-330 = IgG part, limits assumed); experiment: ELISA, plate-bound CD134:Fc, biotinylated antibody detected with streptavidin-HRP
T5 construct: domain: Fcγ (IgG1); Bought (R&D Systems); also called rhuCD134

[7] = molecular target: T5, recombinant human CD134:human Fcγ …; experiment: competition ELISA, plate-bound CD134:Fc; competitor biotinylated mouse 12H3 at 20 ng/mL
Experimental: Ninety six-wells flat-bottom ELISA plates (Corning) were coated with 50 ng/well recombinant human CD134:human Fcγ (IgG1) fusion protein (R&D Systems) in PBS o/n at 4° C. After extensive washing in PBS/0.05% Tween 20, plates were blocked in PBS/0.05% Tween 20/1% BSA fraction V (Roche) for 1 hour at RT. […] After adding 1 M H₂SO₄, optical densities were measured at a wavelength of 450 nm (reference wavelength of 655 nm) using a microplate reader (BioRad).

[8] = molecular target: T3, human CD134 (full-length, on cells); experiment: flow cytometry, stable CD134 293-F clone no. 5, biotinylated antibody detected with streptavidin-PE
[9] = molecular target: T3, human CD134 (full-length, on cells); experiment: competition flow cytometry, stable CD134 293-F clone no. 5; competitor biotinylated mouse 12H3 at 700 ng/mL
Experimental: Full-length human CD134 (SEQ ID NO1) was re-cloned in a pcDNA3.1-derived expression plasmid (see Example 11 (c) above). […] After extensive washing in PBS/BSA/NaN₃, cells were fixed in 2% formaldehyde in PBS/BSA/NaN₃ for 30 minutes at 4° C.

- binding result [1]: no binding (tested: 50.0 µg/mL)
- binding result [2]: binds
- EC50 [3]: > 0.2 µg/mL
- binding result [4]: no binding (tested: 20.0 µg/mL)
- EC50 [5]: ~0.5 µg/mL
- EC50 [6]: ~0.02 µg/mL
- IC50 [7]: ~0.75 µg/mL
- EC50 [8]: ~0.7 µg/mL
- IC50 [9]: ~3.5 µg/mL
B1: mouse anti-human CD134 monoclonal antibody clone 12H3 (antibody, V domains shown)
VH: EVQLQQSGPELVKPGASVKISCKTSGYTFKDYTMHWVKQSHGKSLEWIGGIYPNNGGSTYNQNFKDKATLTVDKSSSTAYMEFRSLTSEDSAVYYCARMGYHGPHLDFDVWGAGTTVTVSP
VL: DIVMTQSHKFMSTSLGDRVSITCKASQDVGAAVAWYQQKPGQSPKLLIYWASTRHTGVPDRFTGGGSGTDFTLTISNVQSEDLTDYFCQQYINYPLTFGGGTKLEIKR
notes: also called m12H3; parental mouse anti-human CD134 antibody clone 12H3
